According to patent publication US20220273823A1, “THERANOSTIC CONJUGATES” (Ariel Scientific Innovations Ltd., priority 2019, published 2022):

Assays:
[1] = Spectral properties of RD, IRD-CLB and 5-CLB in PB and CM; format: physicochemical; details: for ΦF / λmaxAb / λmaxFl: 25° C.
Description: The spectral properties of the dye RD and its conjugates IRD-CLB and 5-CLB were measured at the concentrations (c) of 0.6 μM in 10 mM phosphate buffer pH 7.5 (PB) and cell medium pH 7.5 (CM), both containing 20% of acetonitrile (ACN) to improve solubility of the compounds.
Table 2 presents the absorption (λmaxAb) and emission (λmaxFl) maxima, extinction coefficients (ε) and fluorescence quantum yields (ΦF) of the RD dye and IRD-CLB and 5-CLB conjugates measured at 25° C. in 10 mM phosphate buffer pH 7.5 (PB) and cell medium pH 7.5 (CM).
(§1) The biodegradable ester linker (BL) in IRD-CLB and 5-CLB can be hydrolyzed to release free CLB and, accordingly, IRD turns into RD, which is accompanied by a noticeable change in the spectral properties. The time-dependent emission spectra were recorded in PB and CM (see, FIGS. 9A-D) using the excitation wavelengths 720 nm and 532 nm. The first one enabled monitoring of the decrease in the concentration of IRD-CLB and 5-CLB, while the second one—the increase in the concentration of RD and OctA-RD. Only the NIR fluorescence of IRD-CLB and 5-CLB was detected, when excited at 720 nm; and only the red fluorescence of RD and OctA-RD was detected, when excited at 532 nm.
Absorption spectra were recorded on a Jasco V-730 UV-Vis spectrophotometer and the fluorescence spectra were measured on Edinburgh FS5 spectrofluorometer. The absorption and fluorescence spectra and the quantum yields (ΦF) were measured in a 1-cm quartz cell at ˜0.5 μM dye concentrations in PB 10 mmol buffer pH 7.4 at 25° C. and cell medium pH 7.4. Excitation wavelength was 720 nm and 532 nm. The recorded fluorescence spectra were corrected using the wavelength-dependent instrument sensitivity coefficients. Absorption and emission maxima were measured with accuracy of ±0.3 nm and ±0.5 nm, respectively, and rounded. For the determination of the quantum yields, the integrated relative intensities were measured versus ICG™ in methanol as the reference (ΦF=0.043) and Cy3™ in PBS (ΦF=0.043). The absorbance values measured for the samples and the reference at the excitation wavelength were 0.04-0.06 measured in a 1-cm cell. The absolute quantum yields were calculated according to Equation 1.

[2] = Cleavage rates for IRD-CLB and 5-CLB in PB and cell medium (time-dependent emission spectra); format: in vitro ADME; details: pH 7.4, incubated at 37° C., read-out: drug release half-life τ1/2 (converted)
Description: as §1
Upon the hydrolytic cleavage, the NIR emission band (FNIR) related to IRD decreases and the red emission band (FRed) of RD increases (FIGS. 9A-D). Based on the time-dependent emission spectra, the drug cleavage profiles for IRD-CLB and 5-CLB were obtained (FIG. 9A) and the drug release rates were quantified by the half-lives (τ1/2).
A stock solution of IRD-CLB and 5-CLB in acetonitrile was added to PB 10 mmol buffer pH 7.4 at 25° C. and cell medium pH 7.4, which both contained 20% of acetonitrile. The absorbance of the resulted solutions at the maximum was 0.10±0.01, when measured in a 1-cm standard quartz cell. The solutions were incubated at 37° C. during 24 hours. In certain periods of time fluorescence spectrum was measured.

Panc-1 = experiment: XTT cytotoxicity assay, PANC-1; format: cell-based, human; details: PANC-1, 10 min at 37° C., up to 25 μM, washed, XTT at 24 hours
Description: Application of the 5-CLB conjugate equipped with targeting peptide OctA was studied in the TDD monitoring using PANC-1 cancer cell line that overexpress SSTR-2 and SSTR-5 receptors. Efficient delivery of 5-CLB by the conjugated OctA to PANC-1 was verified by the XTT assay. Cytotoxicity of 5-CLB was compared to that of CLB or OctA added separately. The compounds were incubated with cells for 10 min at 37° C. at concentrations up to 25 μM, and subsequently were washed out, and growth inhibition compared to naïve/native cells was assessed in 24 hours.
The cytotoxicity of the peptide-drug conjugates was determined by measuring the mitochondrial enzyme activity, using a commercial XTT assay kit. Panc-1 cell line was cultured in RPMI medium supplemented with 10% heat-inactivated Fetal Bo-vine Serum (FBS), 2 mM glutamine, 1% penicillin and strep-tomycin and cultured at 37° C. in a humidified incubator with 6% CO2. Cells cultures were initiated in microplate wells at a concentration of 2-4×10^4 and the cells were allowed to adhere for 24 hours. […] Absorbance in the wells were measured with a TECAN Infinite M200 ELISA reader at both 480 and 680 nm—the latter being the background absorbance. […]

SSTRs = experiment: Competitive binding of 5-CLB and free octreotide to PANC-1 receptors (NIR fluorescence imaging); format: cell-based, human; details: 5-CLB 10 μM, Oct x1, x3, x10 molar excess, NIR channel, 60 min after incubation
Description: The specificity of 5-CLB towards PANC-1 cell line was supported also by a competitive binding of 5-CLB and commercially available octreotide to the PANC-1 receptors. In a series of experiments, PANC-1 cell line was incubated for 10 min in PBS buffer contained 5% DMSO with a constant concentration of 5-CLB (10 μM) and variable concentration of octreotide (×1, ×3 and ×10 molar excess) and washed out. Then the fluorescence images were taken in the NIR channel in 60 minutes after the incubation.
PANC-1 were incubated for 10 minutes at 37° C. in PB with 5-CLB (10 μM) and increasing concentrations of Oct (xl, x3 and x10 molar excess) and both compounds were washed out. Fluorescence images were taken at 60 min after the incubation and fluorescence intensities remaining in the cells were measured. […] At the next step, the ratiometric fluorescence monitoring of CLB release from the 5-CLB conjugate delivered into the PANC-1, has been conducted. The cells were incubated with 5-CLB for 10 min to allow accumulation of the compound, and fluorescence images were taken over time in two channels. The NIR channel enabled measurements of the signal from IRD dye conjugated with CLB (5-CLB) while the Red channel detected the signal from the RD fluorophore formed upon the CLB release. […]

[3] = Ratiometric fluorescence monitoring of CLB release from 5-CLB in PANC-1; format: cell-based; details: human, PANC-1 cells; PANC-1, 10 μM, 10 min incubation, NIR and Red channels; read-out: CLB cleavage half-life τ1/2
Description: The Fluorescent images were acquired by Photometrics CoolSNAP HQ2 camera mounted on an Olympus iX81 fluorescent microscope. For the Red channel a cube comprising a ET560/40x bandpass excitation filter, ET630/75m bandpass emission filter and T5851pxr dichroic filter was used. For the NIR channel a cube comprising a ET740/40x bandpass excitation filter, ET7801p long pass emission filter and T7701pxr dichroic filter was used. To monitor drug release, Panc-1 cell line was grown in six-well culture plates and then washed with PBS (pH 7.4) two times and then incubated 10 minutes with 5-CLB 10 μM solution in PBS (for better solubility PBS with 3% DMSO was used). After incubation, the samples washed thoroughly with PBS (pH 7.4) two times to remove excess conjugate and the fluorescence changes immediately measured by using fluorescent microscope. […]
The band intensities in a representative experiment were quantified by measurement of related fluorescence intensity for each image (via the “Measure” function) with Image J software.
PANC-1 were incubated for 10 minutes at 37° C. in PB with 5-CLB (10 μM) and increasing concentrations of Oct (xl, x3 and x10 molar excess) and both compounds were washed out. Fluorescence images were taken at 60 min after the incubation and fluorescence intensities remaining in the cells were measured. […]

[4] = Drug (Aza) release from Aza-Flu conjugates in PB, CM and 1.25% LH by time-dependent fluorescence spectra
[5] = cell medium (CM), in CM with 20% acetonitrile

Structure (SMILES): C[C@@H](O)[C@H](NC(=O)[C@@H]1CSSC[C@H](NC(=O)[C@@H](Cc2ccccc2)NC(=O)CCCNC(=O)CCCCCN2/C(=C/C=C3\CCCC(/C=C/C4=[N+](C)c5ccccc5C4(C)C)=C3OC(=O)CCCc3ccc(N(CCCl)CCCl)cc3)C(C)(C)c3ccccc32)C(=O)N[C@@H](Cc2ccccc2)C(=O)N[C@H](Cc2c[nH]c3ccccc23)C(=O)N[C@@H](CCCCN)C(=O)N[C@@H]([C@@H](C)O)C(=O)N1)C(N)=O [5-CLB]
- ΦF ([1]; CM:ACN (4:1, v/v)): 5.9%
- λmaxAb ([1]; CM:ACN (4:1, v/v)): 787 nm
- λmaxFl ([1]; CM:ACN (4:1, v/v)): 805 nm
- emission when excited at 532 nm ([1]; PB and CM): no detectable emission
- ΦF ([1]; PB:ACN (4:1, v/v)): 1.5%
- λmaxFl ([1]; PB:ACN (4:1, v/v)): 796 nm
- λmaxAb ([1]; PB:ACN (4:1, v/v), c=0.6 μM): 783 nm
- half-life ([2]; PB (10 mmol buffer), in PB with 20% acetonitrile): ~2.4 h
- half-life [2, 5]: ~2 h
- half-life at 0.6 μM [2, 5]: ~2 h
- growth inhibition (Panc-1): dramatically higher growth inhibition compared to CLB or OctA
- Fluorescence of 5-CLB accumulated in the cells in presence of free Oct (SSTRs): decreased proportionally to the Oct concentration
- half-life at 10 μM [3]: ~3.33 h

Structure (SMILES): COc1cc(C2c3[nH]c4ccccc4c3CC3COC(=O)N32)cc(OC)c1O/C=C/C(=O)Oc1ccc2c(c1)Oc1cc(OCC(=O)O)ccc1C21OC(=O)c2ccccc21 (stereo not drawn) [Aza-Flu-COOH, (E)-2-((3′-((3-(2,6-dimethoxy-4-(3-oxo-1,3,5,6,11,11a-hexahydrooxazolo[3′,4′:1,6]pyrido[3,4-b]indol-5-yl)phenoxy)acryloyl)oxy)-3-oxo-3H-spiro [isobenzofuran-1,9′-xanthen]-6′-yl)oxy) acetic acid]
- half-life [4]: ~1.8 h
